Columns and labels:
[1] = molecular target: T1, full length cynomolgus APLNR (MfAPLNR) (cynomolgus (Macaca fascicularis)); test: FACS, secondary antibody alone (4 ug/mL) on HEK293/CRE-luc/MfAPLNR cells
T1 sequence: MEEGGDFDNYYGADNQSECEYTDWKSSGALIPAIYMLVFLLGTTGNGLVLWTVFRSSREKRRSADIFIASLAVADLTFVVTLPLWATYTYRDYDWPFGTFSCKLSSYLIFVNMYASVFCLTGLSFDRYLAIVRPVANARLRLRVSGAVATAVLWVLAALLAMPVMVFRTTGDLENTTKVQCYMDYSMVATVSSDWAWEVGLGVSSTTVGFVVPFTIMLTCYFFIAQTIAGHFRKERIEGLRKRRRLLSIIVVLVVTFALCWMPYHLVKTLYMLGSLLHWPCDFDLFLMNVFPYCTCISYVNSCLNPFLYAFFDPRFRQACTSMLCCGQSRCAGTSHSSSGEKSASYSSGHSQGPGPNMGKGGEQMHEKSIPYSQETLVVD

[2] = molecular target: full-length human APLNR (hAPLNR) (human) (UniProt P35414); test: FACS, secondary antibody alone on HEK293/CRE-luc/hAPLNR cells
[3] = molecular target: full-length human APLNR (hAPLNR) (human) (UniProt P35414); test: FACS, secondary antibody alone (4 ug/mL) on HEK293/CRE-luc/hAPLNR cells
[4] = molecular target: T1, full length cynomolgus APLNR (MfAPLNR) (cynomolgus (Macaca fascicularis)); test: FACS, secondary antibody alone on HEK293/CRE-luc/MfAPLNR cells

Row | Substance | Binding Ratio of Geom. Mean to Unstained Cells [1] | Binding Ratio of Geom. Mean to Unstained Cells [2] | Binding Ratio of Geom. Mean to Unstained Cells [3] | Binding Ratio of Geom. Mean to Unstained Cells [4]
1 | anti-human IgG antibody conjugated with Alexa 488 (secondary antibody alone) | 2 fold | 2 fold | 2 fold | 2 fold
2 | anti-mouse IgG antibody conjugated with Alexa 647 (secondary antibody alone) | 3 fold | – | 4 fold | –

Source: patent US20190177410A1
